Measured values as given in US20120219559A1 (Johns Hopkins, published 2012).

T1: T61A
T1 sequence (chain, by the resolver, C terminal GFP fusion, not carried in the letters): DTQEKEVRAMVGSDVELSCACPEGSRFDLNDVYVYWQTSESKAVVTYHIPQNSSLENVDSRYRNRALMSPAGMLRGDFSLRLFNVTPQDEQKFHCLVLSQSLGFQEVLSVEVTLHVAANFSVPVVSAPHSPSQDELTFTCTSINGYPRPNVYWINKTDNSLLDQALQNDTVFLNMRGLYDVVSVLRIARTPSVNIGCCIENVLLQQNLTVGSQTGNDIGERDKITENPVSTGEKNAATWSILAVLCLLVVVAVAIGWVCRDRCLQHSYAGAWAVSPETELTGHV

T2: mouse B7-H2, full length, expressed on 293T cells (mouse, UniProt Q9JHJ8 44-322)
T2 construct: whole, on cells
T2 sequence (looked up): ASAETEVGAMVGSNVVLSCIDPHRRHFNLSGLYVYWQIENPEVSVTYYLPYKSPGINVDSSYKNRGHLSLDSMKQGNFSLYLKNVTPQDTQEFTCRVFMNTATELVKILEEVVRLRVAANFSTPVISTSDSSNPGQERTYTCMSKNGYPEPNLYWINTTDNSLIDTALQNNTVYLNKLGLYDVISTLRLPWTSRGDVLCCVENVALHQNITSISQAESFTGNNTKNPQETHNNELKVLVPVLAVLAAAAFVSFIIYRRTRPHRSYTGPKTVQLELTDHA

T3: B7-DC (Mus musculus, UniProt Q9WUL5)
T3 sequence (membrane protein, looked up): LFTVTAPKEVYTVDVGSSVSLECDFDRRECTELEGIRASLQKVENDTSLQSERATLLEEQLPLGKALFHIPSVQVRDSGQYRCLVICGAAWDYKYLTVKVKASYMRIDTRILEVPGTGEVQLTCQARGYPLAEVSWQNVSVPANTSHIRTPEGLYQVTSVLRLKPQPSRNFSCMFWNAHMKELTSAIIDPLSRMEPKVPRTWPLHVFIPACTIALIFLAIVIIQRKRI

T4: B7-1
T4 chain: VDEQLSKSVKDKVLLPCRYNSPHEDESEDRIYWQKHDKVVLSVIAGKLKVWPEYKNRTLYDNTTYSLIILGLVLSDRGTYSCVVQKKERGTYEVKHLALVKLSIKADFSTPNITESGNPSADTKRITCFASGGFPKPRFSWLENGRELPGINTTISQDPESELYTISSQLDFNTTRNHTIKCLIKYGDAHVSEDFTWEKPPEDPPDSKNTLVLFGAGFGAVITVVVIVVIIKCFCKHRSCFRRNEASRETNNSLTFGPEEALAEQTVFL

T5: PD-1 (Mus musculus, UniProt Q02242)
T5 sequence (membrane protein, looked up): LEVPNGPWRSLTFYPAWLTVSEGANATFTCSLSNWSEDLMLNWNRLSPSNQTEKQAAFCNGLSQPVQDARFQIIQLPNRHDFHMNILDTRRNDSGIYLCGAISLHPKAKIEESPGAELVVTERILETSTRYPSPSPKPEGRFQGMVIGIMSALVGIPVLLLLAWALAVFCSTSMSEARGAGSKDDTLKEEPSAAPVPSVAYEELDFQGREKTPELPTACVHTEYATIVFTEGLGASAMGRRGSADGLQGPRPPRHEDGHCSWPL

T6: CD28 (Mus musculus, UniProt P31041)
T6 sequence (membrane protein, looked up): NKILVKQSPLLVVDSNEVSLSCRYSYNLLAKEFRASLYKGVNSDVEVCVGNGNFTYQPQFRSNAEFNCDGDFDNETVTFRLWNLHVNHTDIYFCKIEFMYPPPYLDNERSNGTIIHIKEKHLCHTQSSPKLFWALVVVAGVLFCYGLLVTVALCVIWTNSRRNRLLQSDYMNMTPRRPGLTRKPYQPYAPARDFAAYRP

T7: ICOS (Mus musculus, UniProt Q9WVS0)
T7 sequence (membrane protein, looked up): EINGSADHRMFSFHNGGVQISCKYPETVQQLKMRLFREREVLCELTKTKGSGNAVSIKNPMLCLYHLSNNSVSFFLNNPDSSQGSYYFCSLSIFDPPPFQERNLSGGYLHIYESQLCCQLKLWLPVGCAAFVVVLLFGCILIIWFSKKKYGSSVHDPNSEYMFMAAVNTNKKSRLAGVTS

T8: B7-2
T8 chain: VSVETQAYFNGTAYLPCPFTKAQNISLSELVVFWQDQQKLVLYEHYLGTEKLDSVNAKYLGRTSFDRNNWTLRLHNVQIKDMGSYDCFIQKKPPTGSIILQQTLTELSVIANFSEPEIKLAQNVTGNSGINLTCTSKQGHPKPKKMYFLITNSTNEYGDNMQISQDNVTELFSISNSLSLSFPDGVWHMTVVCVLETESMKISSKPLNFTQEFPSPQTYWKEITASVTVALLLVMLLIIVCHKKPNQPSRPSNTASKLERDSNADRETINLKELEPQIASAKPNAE

T9: mouse B7-H2/hB7-H2IgV chimera, expressed on 293T cells (human; mouse, UniProt Q9JHJ8 150-322)
T9 construct: range 150-C-terminus; Mouse B7-H2 Ig V region (Met1-Val149) replaced with the corresponding human region (Met1-Gln123) in the mouse B7-H2 full length gene; also called chimeric gene product
T9 sequence: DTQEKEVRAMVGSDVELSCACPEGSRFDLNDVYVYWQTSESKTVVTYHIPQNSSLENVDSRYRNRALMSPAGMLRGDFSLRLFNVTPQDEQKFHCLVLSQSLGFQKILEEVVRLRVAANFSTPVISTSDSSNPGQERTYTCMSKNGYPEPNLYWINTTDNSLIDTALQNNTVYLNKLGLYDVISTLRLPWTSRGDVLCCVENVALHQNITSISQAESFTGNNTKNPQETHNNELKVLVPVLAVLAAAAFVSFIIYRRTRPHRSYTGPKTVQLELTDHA

T10: human B7-H7Ig fusion protein (human, UniProt Q9UM44 23-344)
T10 construct: not shown: Ig Fc tag; made from pMIgV or pHIgV plasmid and detected with anti-mouse Ig
T10 sequence: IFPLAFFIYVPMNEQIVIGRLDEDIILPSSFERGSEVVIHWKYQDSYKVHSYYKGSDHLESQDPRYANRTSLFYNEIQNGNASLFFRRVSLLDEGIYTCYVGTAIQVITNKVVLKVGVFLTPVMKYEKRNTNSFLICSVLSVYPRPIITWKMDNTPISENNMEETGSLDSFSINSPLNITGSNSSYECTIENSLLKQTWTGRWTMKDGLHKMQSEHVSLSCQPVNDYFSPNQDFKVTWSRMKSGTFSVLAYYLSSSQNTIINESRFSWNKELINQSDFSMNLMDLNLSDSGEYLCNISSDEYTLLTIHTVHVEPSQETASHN


Key:
T61A = molecular target: T1, T61A; assay: flow cytometry on 293T cells expressing B7-H2-GFP mutants; normalised to wild type B7-H2 (100%) and vector control (0%)
[1] = molecular target: human CD28, full length, expressed on cells (CD28+293T cells) (human) (UniProt P10747); assay: cell-based or functional assay
CTLA-4 = CTLA-4 (Mus musculus, UniProt P09793); assay: CDS well image, 293T cells transfected with the mouse gene, stained with the mouse fusion protein
[2] = molecular target: T2, mouse B7-H2, full length, expressed on …; assay: as above
B7-DC = molecular target: T3, B7-DC; assay: as above
B7-1 = molecular target: T4, B7-1; assay: as above
PD-1 = molecular target: T5, PD-1; assay: as above
CD28 = molecular target: T6, CD28; assay: as above
B7-H1 = B7-H1 (Mus musculus, UniProt Q9EP73); assay: as above
ICOS = molecular target: T7, ICOS; assay: as above
B7-2 = molecular target: T8, B7-2; assay: as above
[3] = molecular target: T9, mouse B7-H2/hB7-H2IgV chimera, …; assay: flow cytometry, 293T cells expressing the mouse B7-H2/hB7-H2IgV chimera (mB7-H2/hB7-H2IgV+ 293T)
Procedure: FIGS. 19A-19B. […] The results were analyzed by flow cytometry.

[4] = molecular target: T10, human B7-H7Ig fusion protein; assay: CDS screen: 384-well plate of 293T cells, one human transmembrane gene a well; B7-H7Ig plus anti-mIg FMAT blue; total fluorescence per well

B7-H1, sequence (Q9EP73 19-290 limits assumed): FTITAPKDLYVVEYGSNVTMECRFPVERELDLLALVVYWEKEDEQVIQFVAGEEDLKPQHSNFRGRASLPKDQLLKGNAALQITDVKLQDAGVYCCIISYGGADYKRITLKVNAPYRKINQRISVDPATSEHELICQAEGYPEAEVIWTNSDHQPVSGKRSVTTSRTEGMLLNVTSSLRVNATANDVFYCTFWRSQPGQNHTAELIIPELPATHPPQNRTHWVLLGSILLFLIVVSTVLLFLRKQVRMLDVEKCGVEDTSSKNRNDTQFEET
human CD28, full length, expressed on cells (CD28+293T cells) (human), sequence (P10747 19-220): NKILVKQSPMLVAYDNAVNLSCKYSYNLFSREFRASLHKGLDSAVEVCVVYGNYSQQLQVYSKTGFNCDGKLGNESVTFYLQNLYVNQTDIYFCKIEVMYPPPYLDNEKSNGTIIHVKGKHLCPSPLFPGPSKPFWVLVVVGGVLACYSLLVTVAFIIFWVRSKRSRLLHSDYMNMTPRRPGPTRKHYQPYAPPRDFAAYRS

Row | Molecule | binding result (CTLA-4) | binding result [2] | binding result (B7-DC) | binding result (B7-1) | binding result (PD-1) | binding result (CD28) | binding result (B7-H1) | binding result (ICOS) | binding result (B7-2) | further results
1 | human CTLA4Ig fusion protein (from UniProt P16410 37-162) (Fc fusion) | – | – | – | – | – | – | – | – | – | Binding Percentage% (T61A): 32.1%
2 | mouse anti-human CD28 mAb CD28.6 (blocking) (antibody) | – | – | – | – | – | – | – | – | – | tetanus toxoid-elicited proliferation of memory T cells; inhibition [1]: > 50%
3 | B7-2Ig (Fc fusion, also called mouse B7-2Ig fusion protein; not shown: Ig (Fc) part and any linker of the R&D Systems fusion protein) VSVETQAYFNGTAYLPCPFTKAQNISLSELVVFWQDQQKLVLYEHYLGTEKLDSVNAKYLGRTSFDRNNWTLRLHNVQIKDMGSYDCFIQKKPPTGSIILQQTLTELSVIANFSEPEIKLAQNVTGNSGINLTCTSKQGHPKPKKMYFLITNSTNEYGDNMQISQDNVTELFSISNSLSLSFPDGVWHMTVVCVLETESMKISSKPLNFTQEFPSPQTYWK | binds | no binding | no binding | no binding | no binding | binds | no binding | no binding | no binding | –
4 | mouse CD28Ig fusion protein (Fc fusion, UniProt P31041 20-149, looked up, Bought from R&D Systems; Ig (Fc) part not given) NKILVKQSPLLVVDSNEVSLSCRYSYNLLAKEFRASLYKGVNSDVEVCVGNGNFTYQPQFRSNAEFNCDGDFDNETVTFRLWNLHVNHTDIYFCKIEFMYPPPYLDNERSNGTIIHIKEKHLCHTQSSPK | no binding | no binding | no binding | – | no binding | no binding | no binding | no binding | – | binding result [3]: binds
5 | B7-1Ig (Fc fusion, also called mouse B7-1Ig fusion protein; not shown: Ig (Fc) part and any linker of the R&D Systems fusion protein) VDEQLSKSVKDKVLLPCRYNSPHEDESEDRIYWQKHDKVVLSVIAGKLKVWPEYKNRTLYDNTTYSLIILGLVLSDRGTYSCVVQKKERGTYEVKHLALVKLSIKADFSTPNITESGNPSADTKRITCFASGGFPKPRFSWLENGRELPGINTTISQDPESELYTISSQLDFNTTRNHTIKCLIKYGDAHVSEDFTWEKPPEDPPDSKN | – | no binding | no binding | no binding | no binding | – | – | no binding | no binding | –
6 | human B7-H7CR, full length, expressed on 293T cells (B7-H7CR+293T cells) (receptor, This id also stands for B7-H7CR on human CD4+ T cells in the functional rows; also called TMIGD2; B7-H7R) LSVQQGPNLLQVRQGSQATLVCQVDQATAWERLRVKWTKDGAILCQPYITNGSLSLGVCGPQGRLSWQAPSHLTLQLDPVSLNHSGAYVCWAAVEIPELEEAEGNITRLFVDPDDPTQNRNRIASFPGFLFVLLGVGSMGVAAIVWGAWFWGRRSCQQRDSGNSPGNAFYSNVLYRPRGAPKKSEDCSGEGKDQRGQSIYSTSFPQPAPRQPHLASRPCPSPRPCPSPRPGHPVSMVRVSPRPSPTQQPRPKGFPKVGEE | – | – | – | – | – | – | – | – | – | binding result [4]: binds
